T1: ZBP1-Zα (UniProt Q9H171 8-70)
T1 sequence: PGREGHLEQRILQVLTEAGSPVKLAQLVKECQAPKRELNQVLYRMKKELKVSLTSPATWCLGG

T2: ADAR1-Zα (UniProt P55265 134-198)
T2 sequence: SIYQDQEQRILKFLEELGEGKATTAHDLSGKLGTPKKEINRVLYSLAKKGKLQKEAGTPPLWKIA

B1: A4 (ssDNA)
DNA: TTCAGCACTCCACGCATAGCACGCCCGCCACCCCCTCTCCTGGCCATCCGCGCACACCTATGCGTGCTACCGTGAA
B2: A9 (ssDNA)
DNA: TTCAGCACTCCACGCATAGCCGACCACCCCCCCGACCCGGTGTCACTCCCCGCGCCCCTATGCGTGCTACCGTGAA
B3: A1 (ssDNA)
DNA: TTCAGCACTCCACGCATAGCCGGACGCGCCCCTCTTCCTTGTGTGCTCTCGCCCGCCCTATGCGTGCTACCGTGAA
B4: A10 (ssDNA)
DNA: TTCAGCACTCCACGCATAGCACACGACCGAACTCGCCAACCCTGTCGTCCCGCCCGCCTATGCGTGCTACCGTGAA
B5: A16 (ssDNA)
DNA: TTCAGCACTCCACGCATAGCACACCGCCCCCCTCTACTCGGCACACTCGCCCGCCCCTATGCGTGCTACCGTGAA
B6: A15 (ssDNA)
DNA: TTCAGCACTCCACGCATAGCCCGGCGTGAAGACCCGTGTGCTTTCAGGTCGCCCGCCCTATGCGTGCTACCGTGAA
B7: A13 (ssDNA)
DNA: TTCAGCACTCCACGCATAGCCCGGCCGACGGAACAATCCGTGTTCACTCGTCGCACCCTATGCGTGCTACCGTGAA
B8: A14 (ssDNA)
DNA: TTCAGCACTCCACGCATAGCACGCCGCCGAAGCAAACCCACGTCCTCGCCCACGGCCCTATGCGTGCTACCGTGAA
B9: A7 (ssDNA)
DNA: TTCAGCACTCCACGCATAGCGACGGGCCAACACCCCAGGTTCGCGTCCCCGCCTGCCCTATGCGTGCTACCGTGAA
B10: A3 (ssDNA)
DNA: TTCAGCACTCCACGCATAGCCGACCCGCGCCGCATTCACTGCCTACTGCCCGCCGCCCTATGCGTGCTACCGTGAA
B11: A2 (ssDNA)
DNA: TTCAGCACTCCACGCATAGCCGGCCAGCCAAGTCCCCGCTCCTCACGGCCCCCCGCCCTATGCGTGCTACCGTGAA
B12: A12 (ssDNA)
DNA: TTCAGCACTCCACGCATAGCACACGCGCGAAGACCCCCACCGATCCGGCCGCTCGTCCTATGCGTGCTACCGTGAA
B13: A11 (ssDNA)
DNA: TTCAGCACTCCACGCATAGCCCGGTGCCGACCGAACCACCGTTGCCCTCCGCATGCCCTATGCGTGCTACCGTGAA
B14: A8 (ssDNA)
DNA: TTCAGCACTCCACGCATAGCCCGCCACCACCAATCCTCACACTAGTCCGGCCCGGTCCTATGCGTGCTACCGTGAA
B15: A6 (ssDNA)
DNA: TTCAGCACTCCACGCATAGCCCGCACCCAGCCGCGACTGCCCCCTGGTTCGGCCCGCCTATGCGTGCTACCGTGAA
B16: A5 (ssDNA)
DNA: TTCAGCACTCCACGCATAGCCCGCCCCCCGCTACTCCCCTCCTGAGTTGCCGTCGCCCTATGCGTGCTACCGTGAA

Experimental findings from publication doi:10.1101/2025.10.22.683608 are described below.

The target of one data set is T1, ZBP1-Zα. In words: SPR. (In general: In SPR one partner is held on a chip, and binding of the other changes the refractive index at the surface.)
Usually Kd stands for the constant that tells how readily two partners part at equilibrium. Read a low Kd as higher affinity. Regarding B1, binding was characterised by a dissociation constant (Kd) of 255 nM. In other words, the sub-micromolar range.

A further data set addresses T2, ADAR1-Zα. In words: SPR.
B1: the Kd is 1.8 nM. In other words, the single-digit nanomolar range.

The target in a further data set is T2, ADAR1-Zα. The data set is described as follows: SPR. This is another data set of the same source.
As for B2, binding was characterised by a dissociation constant (Kd) of 26.5 ± 5.5 nM.
On the same count and under the same terms, to B3 belongs 31.7 ± 5 nM; to B4, 99.2 ± 25.3 nM; to B5, 103 ± 11.9 nM.
On to B6, for which binding was characterised by a dissociation constant (Kd) of 103 ± 17 nM.
In turn, B7 yielded a Kd of 29.5 ± 7.6 nM.
In turn, B8 showed a Kd of 96.7 ± 11.4 nM.
The molecule B9 came in with a Kd of 27.7 ± 3.1 nM. This Kd is about 3.5-fold lower than that of the molecule before.
On to B1, for which the Kd is 2.1 ± 0.4 nM.
On the same count and under the same terms, to B10 belongs 16.1 ± 3.7 nM; to B11, 25.7 ± 6.2 nM; to B12, 104 ± 29.2 nM.
Same read-out and setting: to B13 belongs 104 ± 10 nM; to B14, 99.8 ± 24.6 nM.
Take B15: the Kd was 20.2 ± 2.2 nM.
As to B16, the equilibrium dissociation constant (Kd) turned out to be 2 ± 0.3 nM.
